Data on twelve molecules can be found in patent US20190218277A1 (Chugai, published 2019).

B1: DG_3CH1000-SG1106/3CL012-SK1 (antibody)
heavy: QVQLVQSGPDVEKPGASVKVSCKASGYTFTSYYMHWVRQAPGQGLEWMGVINPRGGSRRSAQKFQGRITMTRDTSTSTVYMELSSLRSEDTAVYYCARGGRALFYDSYTTPFDGGSWWFDPWGQGSLVTVSSASTKGPSVFPLAPSSKSTSGGTAALGCLVKDYFPEPVTVSWNSGALTSGVHTFPAVLQSSGLYSLSSVVTVPSSSLGTQTYICNVNHKPSNTKVDKRVEPKSCDKTHTCPPCPAPEAAGGPSVFLFPPKPKDTLMISRTPEVTCVVVDVSHEDPEVKFNWYVDGVEVHNAKTKPREEQYNSTYRVVSVLTVLHQDWLNGKEYKCKVSNAALPAPISKTISKAKGQPREPQVYTLPPSREEMTKNQVSLTCLVKGFYPSDIAVEWESNGQPENNYKTTPPVLDSDGSFFLYSKLTVDKSRWQQGNVFSCSVLHEALHAHYTRKELSLSP
light: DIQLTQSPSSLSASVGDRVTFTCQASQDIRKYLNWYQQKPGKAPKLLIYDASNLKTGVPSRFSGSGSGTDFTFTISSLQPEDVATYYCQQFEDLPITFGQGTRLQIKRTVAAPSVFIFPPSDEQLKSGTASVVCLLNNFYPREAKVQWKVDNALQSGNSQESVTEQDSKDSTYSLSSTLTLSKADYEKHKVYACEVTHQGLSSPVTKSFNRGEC
B2: DG_3CH1047-SG1106/3CL012-SK1 (antibody)
heavy: B1 heavy with R101E
light: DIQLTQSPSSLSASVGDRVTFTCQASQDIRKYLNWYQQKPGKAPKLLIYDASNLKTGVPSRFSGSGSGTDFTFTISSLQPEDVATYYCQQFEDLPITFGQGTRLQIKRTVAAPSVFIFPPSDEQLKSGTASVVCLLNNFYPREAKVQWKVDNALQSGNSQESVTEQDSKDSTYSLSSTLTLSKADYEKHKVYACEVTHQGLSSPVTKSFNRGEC
B3: DG_3CH953-SG1106/3CL119-SK1 (antibody)
heavy: B1 heavy with Y32N, M34I
light: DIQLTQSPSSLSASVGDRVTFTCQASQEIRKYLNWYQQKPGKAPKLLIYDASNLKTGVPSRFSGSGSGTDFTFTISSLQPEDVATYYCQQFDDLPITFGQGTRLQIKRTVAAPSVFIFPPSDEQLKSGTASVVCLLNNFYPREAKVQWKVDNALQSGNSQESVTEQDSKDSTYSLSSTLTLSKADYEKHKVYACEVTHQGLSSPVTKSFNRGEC
B4: DG_3CH953-SG1106/3CL012-SK1 (antibody)
heavy: B1 heavy with Y32N, M34I
light: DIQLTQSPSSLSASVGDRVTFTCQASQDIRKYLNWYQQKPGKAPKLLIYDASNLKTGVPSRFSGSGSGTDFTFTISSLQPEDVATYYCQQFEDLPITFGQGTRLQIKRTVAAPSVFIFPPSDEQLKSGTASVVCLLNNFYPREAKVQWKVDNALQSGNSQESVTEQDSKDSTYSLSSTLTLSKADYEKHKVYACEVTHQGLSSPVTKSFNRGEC
B5: DG_3CH1000-SG1106/3CL119-SK1 (antibody)
heavy: B1 heavy
light: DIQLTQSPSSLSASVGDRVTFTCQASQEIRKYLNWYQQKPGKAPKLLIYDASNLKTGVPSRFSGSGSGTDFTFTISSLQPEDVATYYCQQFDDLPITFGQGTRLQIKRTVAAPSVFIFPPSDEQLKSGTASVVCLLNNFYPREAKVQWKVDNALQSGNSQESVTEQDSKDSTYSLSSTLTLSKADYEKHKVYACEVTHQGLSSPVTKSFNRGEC
B6: DG_3CH1047-SG1106/3CL119-SK1 (antibody)
heavy: B1 heavy with R101E
light: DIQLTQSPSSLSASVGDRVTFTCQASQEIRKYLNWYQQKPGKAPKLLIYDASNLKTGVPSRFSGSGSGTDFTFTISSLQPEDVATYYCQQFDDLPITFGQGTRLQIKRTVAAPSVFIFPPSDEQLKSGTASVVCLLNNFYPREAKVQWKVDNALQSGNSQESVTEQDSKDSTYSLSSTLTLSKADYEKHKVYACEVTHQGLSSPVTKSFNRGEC
B7: DG_3CH1000-SG1106/3CL-SK1 (antibody)
heavy: B1 heavy
light: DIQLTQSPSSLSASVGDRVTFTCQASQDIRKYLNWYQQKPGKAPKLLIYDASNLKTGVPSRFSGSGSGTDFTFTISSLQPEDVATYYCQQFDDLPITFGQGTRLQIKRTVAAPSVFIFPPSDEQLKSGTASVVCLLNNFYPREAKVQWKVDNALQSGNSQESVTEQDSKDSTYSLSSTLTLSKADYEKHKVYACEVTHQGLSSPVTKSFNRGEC
B8: DG_3CH1049-SG182/3CL668-SK1 (antibody, V domains shown)
VH: QVQLVQSGAEVKKPGASVKVSCKASGYTFTSYYMHWVRQAPGQGLEWMGVINPRGGSRRSAQKFQGRVTMTRDTSTSTVYMELSSLRSEDTAVYYCARGGEALFYDSYTTPFDGGSWWFDPWGQGSLVTVSS
VL: DIQLTQSPSSLSASVGDRVTITCQASQDIRKYLNWYQQKPGKAPKLLIYDASNLKTGVPSRFSGSGSGTDFTLTISSLQPEDVATYYCQQFEDLPITFGQGTRLQIKR
B9: DG_3CH1049-SG182/3CL633-SK1 (antibody, V domains shown)
VH: B8 VH
VL: B8 VL with E92D
B10: DG_3CH1046-SG182/3CL668-SK1 (antibody, V domains shown)
VH: B8 VH with E101R
VL: B8 VL
B11: DG_3CH1046-SG182/3CL666-SK1 (antibody, V domains shown)
VH: B8 VH with E101R
VL: B8 VL with D28E, E92D
B12: DG_3CH1049-SG182/3CL666-SK1 (antibody, V domains shown)
VH: B8 VH
VL: B8 VL with D28E, E92D

Changes are numbered by the printed parent chain.

One assay addresses T1, Recombinant soluble E protein (0.8E-His) from DENV-3 (DENV-3, UniProt P27915 281-673).
T1 construct: also called DENV-3 E protein; DV3
Assay: not given
Turning to B1, the dissociation constant (Kd) was found to be 0.101 pM.

Turning to B2, the Kd worked out at 2.36 pM.

As to B3, the Kd came out at 2.17 pM.

Regarding B4, the dissociation constant Kd came to 10.6 pM.

In the case of B5, the Kd turned out to be 1.82 pM.

With B6, the dissociation constant Kd turned out to be 4.36 pM.

On to B7, for which the Kd came to 0.299 pM.

As to B8, the equilibrium dissociation constant (Kd) stood at 1.55 pM.

Turning to B9, the Kd was determined as 4.1 pM.

Take B10: the Kd was found to be 0.559 pM.

Turning to B11, the Kd worked out at 0.47 pM.

With B12, the Kd stood at 2.95 pM.

For a further assay, the target named is T2, Recombinant soluble E protein (0.8E-His) from DENV-2 (DENV-2, UniProt P14340 281-675).
T2 construct: also called DENV-2 E protein; DV2
Description: SPR, Biacore T200. (Surface plasmon resonance follows binding to a sensor surface in real time, without labels.)
Take B1: the binding result is recorded as “binds”.

For B2, the binding result is given as “binds”.

On to B3, for which the binding result is listed as “binds”.

For the molecule B4, the binding result is given as “binds”.

For the molecule B5, the binding result is given as “binds”.

On to B6, for which the binding result is listed as “binds”.

With B7, the binding result is recorded as “binds”.

Take B8: the binding result is on record as “binds”.

Consider B9, for which the binding result is “binds”.

Take B10: the binding result was “binds”.

As for B11, the binding result is reported as “binds”.

For B12, the binding result is “binds”.

A further assay deals with T3, Recombinant soluble E protein (0.8E-His) from DENV-4 (DENV-4, UniProt P09866 280-674).
T3 construct: also called DENV-4 E protein; DV4
Description: SPR, Biacore T200.
Regarding B1, the binding result was “binds”.

Regarding B2, the binding result is given as “binds”.

As for B3, the binding result is reported as “binds”.

In the case of B4, the binding result was “binds”.

Turning to B5, the binding result is recorded as “binds”.

As for B6, the binding result is recorded as “binds”.

Regarding B7, the binding result is recorded as “binds”.

On to B8, for which the binding result is on record as “binds”.

B9: the binding result is reported as “binds”.

Take B10: the binding result was “binds”.

Take B11: the binding result was “binds”.

As for B12, the binding result was “binds”.

The next assay has as its target T4, Recombinant soluble E protein (0.8E-His) from DENV-1 (DENV-1, UniProt P27909 281-675).
T4 construct: also called DENV-1 E protein; DV1
Assay: not given
Consider B1, for which the Kd came to 1.91 nM.

For the molecule B2, the Kd is 2.18 nM.

Take B3: the Kd is 1.96 nM.

In the case of B4, the dissociation constant (Kd) was determined as 1.89 nM.

Turning to B5, the Kd came out at 1.91 nM.

Turning to B6, the Kd turned out to be 2.29 nM.

Consider B7, for which the Kd is 1.84 nM.

Take B8: the Kd was 1.7 nM.

As for B9, the Kd was determined as 1.73 nM.

As to B10, the Kd worked out at 1.56 nM.

As for B11, the Kd amounted to 1.52 nM.

B12: the Kd amounted to 1.72 nM.

Broadly, the Kd is a measure of binding affinity in units of concentration.
